This sample holds only a part of the variants without activity.
B1: TPR 5TU (parent)
chain: GGAUCUUCUCGAUCUAACAAAAAAGACAAAUCUGCCACAAAGCUUGAGAGCAUCUUCGGAUGCAGAGGCGGCAGCCUUCGGUGGCGCGAUAGCGCCAACGUUCUCAACUAUGACACGCAAAACGCGUGCUCCGUUGAAUGGAGUUUAUCAUG

Variants of: B1
Test: polymerase ribozyme fitness, log enrichment relative to wild type (log ratio); higher = more active; in vitro selection for triplet polymerase activity
Procedure, shortened: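 Mutant libraries were PCR-built and transcribed for each subunit of a heterodimeric triplet polymerase ribozyme and selected for one round in triplicate at −7 °C, frozen, before gel excision of extended constructs and streptavidin-bead capture. Input and output libraries were Illumina-sequenced, keeping genotypes with ≥10 input reads and ≥1 read per output. Fitness is a logarithmic ratio of genotype to wild-type enrichment, in base 2, using inverse-variance-weighted replicate averages.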

Row | Variant | polymerase ribozyme fitness (log ratio)
1 | C95U C131A C132U | -3.79
2 | C93U U104A | -1.88
3 | C93U C96U | -3.28
4 | C93U C96G | -1.58
5 | C93U G133C U134A G140A | ≤ -4.2
6 | C93U U148G | -3.7
7 | C96U A150U | -0.525
8 | C96U A150C | -3.31
9 | C95U U101C | -0.173
10 | C93U C116G | -2.2
11 | A97U G124U C149G | -3.65
12 | C96U A115G U148A | -3.95
13 | G94C C103U A119C C125A | -2
14 | C96G U111C | -3.62
15 | C96U A119C | -1.05
16 | C95U C116G | 0.0419
17 | C95A C96G U144C | -2.34
18 | C96A U104G | -0.932
19 | G94C U101A C105G G141C | ≤ -4.2
20 | C93U G126A U139C | -4.1
21 | C93U G124A C131U U139G | 0.429
22 | C96U G128U A147C | -3.7
23 | C96U U127C | -1.34
24 | C93U C103U | -1.61

Row | Variant | polymerase ribozyme fitness (log ratio)
25 | C93U C103G | -3.63
26 | C96G G152C | -3.62
27 | C93U G136U | -3.31
28 | C96U A110G | -3.55
29 | C96G G124A | -0.441
30 | G94A C116U A122U | -0.787
31 | G94A G140A | -3.51
32 | A98G | -0.208
33 | G94A A119C C132G A138U | ≤ -4.2
34 | C93U A121U U127C | -2.87
35 | G94U A98U G141A | 0.104
36 | G94A C118A | -0.879
37 | G94A C118G | -1.61
38 | C95U C96U | -1.18
39 | C95U C96G | -0.577
40 | C93U G126A | -0.311
41 | C96U G100C | -3.97
42 | G94U G141U | -0.082
43 | G94A A121U C132G U146A A150G | ≤ -4.2
44 | C93G G143U | -4.04
45 | C93U A115G | -3
46 | A97G C99U A142G | -1.1
47 | C96U G136A | 0.246
48 | C96U G136U | -2.74

Row | Variant | polymerase ribozyme fitness (log ratio)
49 | C96U U102G G141C | -4.12
50 | C93G C105U A137G | -4.06
51 | A97U C123U | 0.268
52 | C96G G141U | 0.463
53 | A97G C103A | -0.693
54 | C93U C105G | -3.36
55 | G94C C96U | -1.08
56 | C93U A120G | -0.649
57 | C96A U135A | -1.48
58 | G94C C96U A113U A115U U130C A137G | ≤ -4.2
59 | C95U A122C U130G U139A | -4.01
60 | C96U U134C | -0.883
61 | C93U C114A A115C | ≤ -4.2
62 | C96U G128A U130G | ≤ -4.2
63 | G94A C132G | -3.64
64 | A97U U135G G140C | ≤ -4.2
65 | C96U C125A U144G | -0.161
66 | G94A G136A | -0.0776
67 | G94A G136U | -2.56
68 | C93U A122G C129U U146G | -3.83
69 | C95A C96G | -2.25
70 | C93U C125U U151C G152A | -3.06
71 | C95U C116G A138G | -3.58
72 | C95A A98U U104G A106C | ≤ -4.2

Row | Variant | polymerase ribozyme fitness (log ratio)
73 | C96U A137C | -3.39
74 | A97G G112A A121C G141U | ≤ -4.2
75 | C96G A121U | -0.582
76 | G94C A138G G141A G143A | ≤ -4.2
77 | G94A C105G | -1.68
78 | C96U C116G | 0.963
79 | C96U C116U | -0.186
80 | G94A G124A U146A | -1.09
81 | C93U A119U U127G | -2.59
82 | C95U C99G G117A A120C A122G | -1.97
83 | C96U U135C G140U | -3.67
84 | C96A A107U | -2.87
85 | C96A A107G | -4.2
86 | C96A G126A | -1.95
87 | A97U G100A | -4.1
88 | C96U C118U | -0.211
89 | C95U C149U | -0.647
90 | C95U C149G | -3.59
91 | G94A C125U | -1.67
92 | C96U G141U | -0.301
93 | C96G A120C U146C | -0.778
94 | G94A A115U C125U C132U A147U | ≤ -4.2
95 | C96A C103A U135A U145A | -1.96
96 | C96A A113U U144A | -2.58

Row | Variant | polymerase ribozyme fitness (log ratio)
97 | C96G A107C C108A A120U G136U | -3.81
98 | C93U | -1.34
99 | A97U A98G | -2.31
100 | G94C C132U | -1.26
101 | C96A U102A G143C | -4.16
102 | C95A G100U A106G A110G A142U | -4.01
103 | C96G C103A | -2.09
104 | C93U G140A | -3.82
105 | C93U G140C | -3.57
106 | C95U G100U U148G | ≤ -4.2
107 | C96A G124U C149G | -3.82
108 | C96A A97U C118U | -0.741
109 | C93U A121U | -0.267
110 | C95A U144G | 0.303
111 | G94C G140A | -3.95
112 | G94C C103U | -0.0253
113 | C96A C118A | -0.912
114 | C96G G143U | -3.01
115 | C96G G143A | -2.42
116 | C96G A98U G100A C108G G133C | ≤ -4.2
117 | A97U U144A | -1.56
118 | C93G C123U G140U | -4.17
119 | C96A A122U | -0.0649
120 | C96U G128U | -3.45

Row | Variant | polymerase ribozyme fitness (log ratio)
121 | G94C C131U U135G G152A | -3.32
122 | C96U C114U A147C | -4.07
123 | G94C G143A | -1.86
124 | A97U A137U | ≤ -4.2
125 | C96A A138U G140U | ≤ -4.2
126 | C96U C125G | -0.976
127 | C93G G140A | ≤ -4.2
128 | C96G C105U A113C A121U | -2.76
129 | C96U A115U U145A | -1.79
130 | A97U C118G A121G | -1.56
131 | C93G U146G C149U | -3.51
132 | C93U A119U A121C | -1.6
133 | C96U G140C | -3.73
134 | C96U G140U | -3.33
135 | G94U A142G | -3.45
136 | C93U G124A | -1.3
137 | C93U G124U | -2.66
138 | G94A A137U | -3.87
139 | C96G U104G G141U | -1.2
140 | A97U U102C A138C | ≤ -4.2
141 | G94C A150G | -1.6
142 | A97U G141U | 0.189
143 | C96U A115U G124C U151C | ≤ -4.2
144 | G94A U102G G133A | ≤ -4.2

Row | Variant | polymerase ribozyme fitness (log ratio)
145 | G94C C96U G112C U146C | ≤ -4.2
146 | G94C C99U | -0.0105
147 | C96U G124C | -0.743
148 | G94A A97G G124A | -1.65
149 | G94U G143A | -1.67
150 | C96G U148C | -1.42
151 | C96G U148G | -4.12
152 | G94C U127A | -3.75
153 | G94A G143C | -2.41
154 | C96U A110G C114U A142G | -4.07
155 | A97U A119G U130C | 0.572
156 | C96U C105G U144A | -1.81
157 | C96U C99A | -1.51
158 | C96U C99U | -0.378
159 | C96A A120G | 0.0421
160 | C95U C125U | -0.278
161 | C95U C132G A150U | -3.31
162 | C93U U109G U144G | -1.39
163 | C96U U146G | -1.29
164 | A97U A150G | -1.61
165 | C96A U127C | -1.71
166 | C96U U101G | 0.195
167 | C96U C114U | -2.66

Reference: the RNAGym collection of RNA variant scans (doi:10.1073/pnas.2313332121)
